Target: T1, UGT1A6 (Homo sapiens, UniProt P19224)
T1 construct: purchased Corning 456416
T1 sequence (P19224 27-532): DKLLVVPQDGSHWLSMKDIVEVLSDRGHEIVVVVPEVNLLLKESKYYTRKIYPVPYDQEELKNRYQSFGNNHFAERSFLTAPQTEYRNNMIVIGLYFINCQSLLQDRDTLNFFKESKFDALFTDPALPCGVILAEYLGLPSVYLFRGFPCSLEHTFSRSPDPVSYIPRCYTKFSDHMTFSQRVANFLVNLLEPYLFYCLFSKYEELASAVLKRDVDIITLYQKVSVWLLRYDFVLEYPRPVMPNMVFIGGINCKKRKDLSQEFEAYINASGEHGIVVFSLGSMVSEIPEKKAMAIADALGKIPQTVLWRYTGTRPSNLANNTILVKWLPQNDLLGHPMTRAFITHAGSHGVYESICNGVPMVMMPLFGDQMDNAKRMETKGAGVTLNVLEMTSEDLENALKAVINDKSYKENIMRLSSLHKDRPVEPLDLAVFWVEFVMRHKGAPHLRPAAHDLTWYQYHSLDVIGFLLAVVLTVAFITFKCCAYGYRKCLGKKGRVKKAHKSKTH
Assay: Activity of UGT1A6 immobilized on magnetite powder, BioVision fluorometric UGT activity assay (Example 10)
Assay type: biochemical
Conditions: 2 hours, 37° C., 500 μl reaction
Procedure: The UGT1A6 stock (5 mg/mL) was rapidly thawed in a […] and diluted in cold 50 mM Tris pH 7.0 to a final concentration of 25 μg/ml. 500 μl of UGT1A6 solution was added to 5 mg of magnetite powder and incubated for 1 hour at 4° C. with shaking. The immobilization yield was quantified by the Bradford method (Bradford reagent: Quick Start™ Bradford 1× Dye Reagent #5000205 from BioRad) by comparing it to UGT1A6 enzyme standards.
A fluorometric assay (BioVision UGT Activity Assay/Ligand Screening Kit, Cat #K692) was used to measure the activity of the free and immobilized UGT1A6. The assay utilizes a highly fluorescent UGT substrate and measures UGT activity by tracking the drop in fluorescence emission as the substrate is converted into a non-fluorescent glucuronide. UGT specific activity is calculated by comparing the fluorescence loss versus a control reaction performed in the absence of the required cofactor UDPGA. Duplicate reactions were performed in 0.5 dram glass vials (VWR® Vials, Borosilicate Glass, with Phenolic Screw Cap) with 500 μl reaction volumes at 37° C. with shaking for 2 hours. UGT1A6 reactions contained BioVision UGT Assay buffer with Alamethicin, BioVision UGT subtrate and the UDPGA cofactor. […] The product was detected by fluorescence at Ex/Em=415/502 nm and quantitated by comparing the drop in fluorescence to a standard curve of UGT substrate fluorescence.

B1: free UGT: Non-immobilized Corning Supersomes Human UGT1A6 enzyme (protein, UniProt P19224 27-532, looked up)
UDP-glucuronosyltransferase …: DKLLVVPQDGSHWLSMKDIVEVLSDRGHEIVVVVPEVNLLLKESKYYTRKIYPVPYDQEELKNRYQSFGNNHFAERSFLTAPQTEYRNNMIVIGLYFINCQSLLQDRDTLNFFKESKFDALFTDPALPCGVILAEYLGLPSVYLFRGFPCSLEHTFSRSPDPVSYIPRCYTKFSDHMTFSQRVANFLVNLLEPYLFYCLFSKYEELASAVLKRDVDIITLYQKVSVWLLRYDFVLEYPRPVMPNMVFIGGINCKKRKDLSQEFEAYINASGEHGIVVFSLGSMVSEIPEKKAMAIADALGKIPQTVLWRYTGTRPSNLANNTILVKWLPQNDLLGHPMTRAFITHAGSHGVYESICNGVPMVMMPLFGDQMDNAKRMETKGAGVTLNVLEMTSEDLENALKAVINDKSYKENIMRLSSLHKDRPVEPLDLAVFWVEFVMRHKGAPHLRPAAHDLTWYQYHSLDVIGFLLAVVLTVAFITFKCCAYGYRKCLGKKGRVKKAHKSKTH
modifications: Supersomes microsomal preparation
notes: Non-immobilized Corning Supersomes Human UGT1A6 enzyme
BioVision UGT Activity Assay substrate consumed (average): 0.58 ± 0.39 nmol
